Experimental data published in US20140051645A1 (Pieris, published 2014).
Residue numbers refer to the chain shown, from its start.

T1: human CTLA-4-Fc (Chimerigen) (human, UniProt P16410 36-161, limits assumed)
T1 construct: Bought fusion protein; also called hCTLA4-Fc; not shown: It was captured by an anti-human IgG-Fc antibody
T1 sequence (looked up): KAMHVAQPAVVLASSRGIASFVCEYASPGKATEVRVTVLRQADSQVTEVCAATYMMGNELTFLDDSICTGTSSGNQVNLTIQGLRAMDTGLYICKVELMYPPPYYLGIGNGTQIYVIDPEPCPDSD

T2: human CTLA-4 on transfected CHO-K1 cells (human, UniProt P16410 36-223)
T2 construct: whole, on cells; also called human CTLA4-transfected CHO cells; CTLA-4 expressing CHO cells
T2 sequence (looked up): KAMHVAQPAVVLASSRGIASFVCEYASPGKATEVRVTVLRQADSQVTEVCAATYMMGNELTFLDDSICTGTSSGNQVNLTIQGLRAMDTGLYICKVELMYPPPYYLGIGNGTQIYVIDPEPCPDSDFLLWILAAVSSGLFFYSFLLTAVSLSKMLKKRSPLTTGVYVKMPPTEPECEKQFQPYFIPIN

B1: SEQ ID NO 14 (designed binder)
chain: MASMTGGQQMGQDSTSDLIPAPPLSKVPLQQNFQDNQFHGKWYVVGLAGNRILRDDQHPMPMYATIYELKGDKSYNVTSVISSHKKCLYPIATFVPGSQPGEFTLGNIKSYGDKWSYLVRVVSTDYNQYAVVFFKHADSNYESFSITIYGRTKELASELKENFIRFSKSLGLPENHIVFPVPIDQCIDG
notes: Screening construct in crude E. coli lysate, with T7 tag, mutein and Strep-tag II
B2: SEQ ID NO 15 (designed binder)
chain: B1 chain with D55S, P61R, P90T, S139T
notes: as for B1
B3: SEQ ID NO 16 (designed binder)
chain: B1 chain with D55S, P90S, W115E, H136Y, D138S, S139D, Y141D
notes: as for B1
B4: SEQ ID NO 17 (designed binder)
chain: B1 chain with D55L, K109R, W115T, S139T
notes: as for B1
B5: SEQ ID NO 13 (designed binder)
chain: B1 chain with D55Q, P61L, W115V, S139T
notes: as for B1
B6: hNGALM4 (designed binder)
chain: QDSTSDLIPAPPLSKVPLQQNFQDNQFHGKWYVVGLAGNRILRDDQHPMPMYATIYELKGDKSYNVTSVISSHKKCLYPIATFVPGSQPGEFTLGNIKSYGDKWSYLVRVVSTDYNQYAVVFFKHADSNYESFSITIYGRTKELASELKENFIRFSKSLGLPENHIVFPVPIDQCIDG
B7: hNGALM3 (designed binder)
chain: QDSTSDLIPAPPLSKVPLQQNFQDNQFHGKWYVVGLAGNRILRQDQHPMLMYATIYELKGDKSYNVTSVISSHKKCLYPIATFVPGSQPGEFTLGNIKSYGDKVSYLVRVVSTDYNQYAVVFFKHADTNYESFSITIYGRTKELASELKENFIRFSKSLGLPENHIVFPVPIDQCIDGSAWSHPQFEK
B8: hNGALM5 (designed binder)
chain: B7 chain with Q44S, L50R, P79T, V104W
B9: hNGALM2 (designed binder)
chain: B7 chain with I41L, Q44D, L50D, V104W
B10: hNGALM6 (designed binder)
chain: B7 chain with Q44S, L50P, P79S, V104E, H125Y, D127S, T128D, Y130D
B11: hNGALM7 (designed binder)
chain: B7 chain with Q44L, L50P, K98R, V104T

These molecules were tested against T1, human CTLA-4-Fc (Chimerigen) (assay: screening ELISA of crude lysates: mutein captured by T7 mAb, limited soluble human CTLA4-Fc; in some cases competition ELISA with mAb BNI3).
Description: Therein, NGAL variants equipped with a T7 detection tag (Novagen) as well as a Strep-tag II affinity tag (IBA) were soluble expressed in a 96 well microtiter plate using the E. coli strain TG1/F with phNGAL37 SEQ ID NO: 10. This vector corresponds to phNGAL15 SEQ ID NO: 11 as described in the following example 4 with an N-terminal T7 tag consisting of 11 amino acids ([…]). Lipocalin mutein expression was induced overnight at 22° C. at 700 rpm with anhydrotetracycline (0.2 μg/ml) at an OD₅₅₀ of 0.6. Afterwards, cells were lysed (100 mM Na-borate, pH 8.0, 80 mM NaCl, 1 mM EDTA, 0.025% w/v lysozyme) for 1 h under agitation. To minimize non-specific binding in the subsequent ELISA screen, the crude cell lysates were supplemented with 2% w/v BSA and 0.1% v/v Tween 20 and tested in ELISA for binding to human CTLA-4-Fc (Chimerigen).
In a reverse ELISA approach soluble expressed muteins from the crude cell lysate were captured via immobilized T7 mAb (5 μg/ml, Novagen) on wells of black Fluotrac 600 ELISA plates (Greiner; 384 well). Neutravidin, 5 μg/ml, and 3% milk were used as negative control. […] Subsequently plates were washed five times and bound target was detected via an goat anti-human Fc monoclonal antibody-HRP conjugate (Jackson ImmunoResearch), diluted 1:5.000 in PBST/0.1. Therefore, QuantaBlu™ (Pierce; 1:2 diluted in PBS/T 0.1%) was used as fluorogenic HRP substrate. After 45 min of signal development at room temperature fluorescence was excited at a wavelength of 320 nm (±12.5 nm) and measured at 430 nm (±17.5 nm) in a GENiosPlus plate reader (Tecan).
In some cases a competition ELISA was carried out where CTLA4-Fc (2.5 μg/ml) was captured in ELISA plates via an immobilized mouse anti-human IgG Fc Gamma fragment-specific antibody (Jackson ImmunoResearch (5 μg/ml) and incubated for 1 h with a pre-mixture of the mutein extracts and different concentrations of a competitive CTLA4-specific mAb BNI3 (BD Bioscience) at concentrations of 30, 100, and 200 nM, respectively.

| binding result | Molecule |
| --- | --- |
| binds | B1 |
| binds | B2 |
| binds | B3 |
| binds | B4 |
| binds | B5 |

Each molecule was assayed against T2, human CTLA-4 on transfected CHO-K1 cells (assay: competition FACS on human CTLA4-transfected CHO-K1 cells; competitor biotinylated human B7.1 at 10 nM).
Description: Different concentrations of the Lcn2 muteins or, as a positive control, of the antibody BNI3 (BD Bioscience) were mixed with recombinant biotinylated human B7.1 (Ancell) at 10 nM final concentration and added to 100 000 of the CTLA-4 transfected CHO-K1 cells which were generated according to the description in example 16 of PCT/EP 2005/012640. Samples were incubated at 4° C. for 2 h, washed twice in PBS containing 2% w/v BSA, and detection of bound B7.1 was accomplished by incubation with streptavidin-phycoerythrin for 30 min at 4° C. Mean fluorescence intensities were determined by flow cytometry and fitted to a sigmoidal dose response model using Prism (GraphPad) as depicted in FIG. 4 to determine EC50 values for Lcn2 muteins from sequences of SEQ ID NO: 12 to SEQ ID NO: 17 which are summarized in Table 3.

| EC50 [nM] | Molecule |
| --- | --- |
| 9.5 | B6 |
| 7.6 | B7 |
| 9 | B8 |
| 6 | B9 |
| 10.3 | B10 |
| 11 | B11 |

These molecules were tested against T3, murine CTLA4-Fc (R&D Systems) (mouse, UniProt P09793 36-162, limits assumed) (assay: SPR, Biacore T100, 25 C; CTLA4-Fc captured on anti-human IgG-Fc, mutein as analyte; 1:1 Langmuir fit).
T3 construct: Bought fusion protein; also called mouse CTLA4; not shown: It was captured by an anti-human IgG-Fc antibody
Description: (§1) Real time affinity analysis was performed at 25° C. using a Biacore T100 system (GE Healthcare). Anti-human IgG-Fc antibody (Jackson ImmounoResearch Laboratories) was immobilized on a CM5 sensor chip using standard amine coupling chemistry, resulting in a ligand density of 8000 resonance units (RU). […] Subsequently, the Lcn2 muteins (SEQ ID: No 12 to SEQ ID NO: 17) were applied in an appropriate dilution series in HBS-EP at a flow rate of 30 μl/min. Regeneration of the derivatized chip surface was achieved by a combination of first basic (2.5 mM NaOH) and then acidic (10 mM glycine, pH 1.5) buffer, each for 8 and 16 s, respectively. […] To correct for buffer effects and baseline drift, double referencing was used throughout. Kinetic data evaluation was performed using the Biacore T100 Evaluation Software (v. 2.0.1) using the Langmuir 1:1 binding model and global fitting.

| Kd [nM] | koff [s⁻¹] | kon [M⁻¹ s⁻¹] | Molecule |
| --- | --- | --- | --- |
| 0.584 | 0.000129 | 221000 | B6 |
| 0.672 | 0.000134 | 199000 | B7 |
| 0.32 | 0.000261 | 813000 | B8 |
| 3.05 | 0.000907 | 298000 | B9 |
| 66.1 | 4.21 | 6.36e+07 | B10 |
| 0.413 | 0.000108 | 261000 | B11 |

The molecules below were run against T1, human CTLA-4-Fc (Chimerigen) in the same assay as above.
Description: as §1

| Kd [nM] | koff [s⁻¹] | kon [M⁻¹ s⁻¹] | Molecule |
| --- | --- | --- | --- |
| 0.346 | 0.000186 | 539000 | B6 |
| 0.46 | 0.000194 | 422000 | B7 |
| 0.74 | 0.000281 | 380000 | B8 |
| 0.686 | 0.000388 | 565000 | B9 |
| 0.588 | 0.000197 | 335000 | B10 |
| 0.659 | 0.000517 | 784000 | B11 |

Each molecule was assayed against T2, human CTLA-4 on transfected CHO-K1 cells (assay: competition FACS on human CTLA4-transfected CHO-K1 cells; blocked ligand: biotinylated human B7.1 at 10 nM, detected with streptavidin-phycoerythrin).

| IC50 (read off the curve) [nM] | Molecule |
| --- | --- |
| 3 | BNI3 (antibody) |
